For orientation: Kd means a measure of binding affinity in units of concentration.

11 molecules from article PMC7145699, “Structural insights into target DNA recognition by R2R3-MYB transcription factors” can be followed below.

In series [1] the target is T1, WER 12-130 (WER-R2R3) (Arabidopsis, UniProt Q9SEI0 12-130).
T1 sequence: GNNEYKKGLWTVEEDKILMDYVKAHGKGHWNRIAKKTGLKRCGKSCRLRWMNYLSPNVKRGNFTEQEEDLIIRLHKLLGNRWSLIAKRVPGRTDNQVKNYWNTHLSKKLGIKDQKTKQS
In words: ITC; ITC: 150 mM NaCl, 20 mM HEPES pH 7.5, 25 C, 400 uM protein into 20 uM DNA; EMSA: 150 mM NaCl, 20 mM Tris-HCl pH 8.0, on ice 1 h, 0.1 uM DNA, 6% native PAGE 0.5x TBE. The conditions noted are these: protein: recombinant; tags: 6xHis-SUMO removed by Ulp1; blunt.

Series [2] addresses T1, WER 12-130 (WER-R2R3). Described as above. The conditions noted are these: protein: recombinant; tags: 6xHis-SUMO removed by Ulp1; blunt. This is another data set of the same source.
Series [3] addresses T1, WER 12-130 (WER-R2R3). The description is as above. The conditions noted are these: protein: recombinant; tags: 6xHis-SUMO removed by Ulp1; blunt. This is another data set of the same source.
In series [4] the target is T1, WER 12-130 (WER-R2R3). As to the kind of experiment: crystal structure (2.15 A); ITC: 150 mM NaCl, 20 mM HEPES pH 7.5, 25 C, 400 uM protein into 20 uM DNA; EMSA: 150 mM NaCl, 20 mM Tris-HCl pH 8.0, on ice 1 h, 0.1 uM DNA, 6% native PAGE 0.5x TBE. The conditions noted are these: protein: recombinant; tags: 6xHis-SUMO removed by Ulp1; 5' overhang 1 nt at both ends. (In general: In EMSA bound probe runs differently from free probe, usually more slowly.)

B1: GL2 promoter WER target DNA (dsDNA)
DNA 1: AAATTCTCCAACCGCATTTTC
DNA 2: GAAAATGCGGTTGGAGAATTT
Turning to B1, the Kd in the series with WER 12-130 (WER-R2R3) [1] was roughly 0.051 µM.

B2: 6mA11 DNA (A6mAC) (dsDNA)
DNA 1: AAATTCTCCAACCGCATTTTC
DNA 2: GAAAATGCGGTTGGAGAATTT
modifications: 6mA at A11 of strand 1
On to B2, for which the binding signal with WER 12-130 (WER-R2R3) [2] is 5 fold decrease in affinity vs N1.

B3: C14:G9* (dsDNA)
DNA 1: AAATTCTCCAACCCCATTTTC
DNA 2: GAAAATGGGGTTGGAGAATTT
With B3, in the series with WER 12-130 (WER-R2R3) [3], the binding signal is 40 fold decrease in affinity vs N1.

B4: 6mA10,6mA11 DNA (6mA6mAC) (dsDNA)
DNA 1: AAATTCTCCAACCGCATTTTC
DNA 2: GAAAATGCGGTTGGAGAATTT
modifications: 6mA at A10 and A11 of strand 1
Turning to B4, the binding signal with WER 12-130 (WER-R2R3) [2] is > 20 fold decrease in affinity vs N1.

B5: C10:G13* (dsDNA)
DNA 1: AAATTCTCCCACCGCATTTTC
DNA 2: GAAAATGCGGTGGGAGAATTT
As to B5, in the series with WER 12-130 (WER-R2R3) [1], the Kd is 2 µM.

B6: T14:A9* (dsDNA)
DNA 1: AAATTCTCCAACCTCATTTTC
DNA 2: GAAAATGAGGTTGGAGAATTT
Consider B6, for which, in the series with WER 12-130 (WER-R2R3) [1], the binding result was “binds”.

B7: 5mC12 DNA (AA5mC) (dsDNA)
DNA 1: AAATTCTCCAACCGCATTTTC
DNA 2: GAAAATGCGGTTGGAGAATTT
modifications: 5mC at C12 of strand 1
For B7, the Kd in the series with WER 12-130 (WER-R2R3) [1] came out at 2.34 µM.

B8: A12:T11* (dsDNA)
DNA 1: AAATTCTCCAAACGCATTTTC
DNA 2: GAAAATGCGTTTGGAGAATTT
Regarding B8, in the series with WER 12-130 (WER-R2R3) [1], the Kd is 2.59 µM.

B9: crystal DNA (dsDNA)
DNA 1: AAATTCTCCAACCGCATTTTC
DNA 2: CGAAAATGCGGTTGGAGAATT
With B9, the binding result in the series with WER 12-130 (WER-R2R3) [4] is given as “binds”.

B10: 6mA10 DNA (6mAAC) (dsDNA)
DNA 1: AAATTCTCCAACCGCATTTTC
DNA 2: GAAAATGCGGTTGGAGAATTT
modifications: 6mA at A10 of strand 1
For the molecule B10, the binding signal in the series with WER 12-130 (WER-R2R3) [2] is 12 fold decrease in affinity vs N1.

B11: A14:T9* (dsDNA)
DNA 1: AAATTCTCCAACCACATTTTC
DNA 2: GAAAATGTGGTTGGAGAATTT
For B11, the binding result with WER 12-130 (WER-R2R3) [1] is recorded as “binds”.
